System: mouse
Experiment: suppression of immune response by oral tolerance
Type: in vivo
Conditions: administered orally to a mouse
Text: As for a method for suppressing antigen-specific immune response, various methods have been already reported. […] Therefore, they tried to suppress the anti-Dsg3 antibody generation in Dsg3^+/+ graft strain by inhibiting the binding of CD40 and CD40L, which are playing an important role to the establishment of immune response. CD40L is a type II cell membrane-penetrating protein, expressed transiently in activated T cells having received antigen stimulation and CD40, its receptor, is expressed in B cells, dendritic cells, monocyte/macrophage, endothelial cells and the like. The CD40-CD40L binding not only plays an important role in cellular immunity by promoting cytokine production and the like, but it is clarified to be quite important for proliferation of B cells, antibody production and the like. Thus, attempts have been made to suppress immune response in autoimmune diseases, organ transplantation and the like by using anti-CD40L monoclonal antibody inhibiting this binding. As mentioned above, in Dsg3^+/+ graft strain, anti-Dsg3 IgG antibody generation, which is detected in serum by ELISA method, is observed approximately two weeks after skin graft, in all mice that underwent skin graft.

B1: Dsg3 protein: Dsg3 protein prepared with the use of E. Coli expression vector, administered orally (protein, UniProt P32926 50-999, looked up)
Desmoglein-3: EWVKFAKPCREGEDNSKRNPIAKITSDYQATQKITYRISGVGIDQPPFGIFVVDKNTGDINITAIVDREETPSFLITCRALNAQGLDVEKPLILTVKILDINDNPPVFSQQIFMGEIEENSASNSLVMILNATDADEPNHLNSKIAFKIVSQEPAGTPMFLLSRNTGEVRTLTNSLDREQASSYRLVVSGADKDGEGLSTQCECNIKVKDVNDNFPMFRDSQYSARIEENILSSELLRFQVTDLDEEYTDNWLAVYFFTSGNEGNWFEIQTDPRTNEGILKVVKALDYEQLQSVKLSIAVKNKAEFHQSVISRYRVQSTPVTIQVINVREGIAFRPASKTFTVQKGISSKKLVDYILGTYQAIDEDTNKAASNVKYVMGRNDGGYLMIDSKTAEIKFVKNMNRDSTFIVNKTITAEVLAIDEYTGKTSTGTVYVRVPDFNDNCPTAVLEKDAVCSSSPSVVVSARTLNNRYTGPYTFALEDQPVKLPAVWSITTLNATSALLRAQEQIPPGVYHISLVLTDSQNNRCEMPRSLTLEVCQCDNRGICGTSYPTTSPGTRYGRPHSGRLGPAAIGLLLLGLLLLLLAPLLLLTCDCGAGSTGGVTGGFIPVPDGSEGTIHQWGIEGAHPEDKEITNICVPPVTANGADFMESSEVCTNTYARGTAVEGTSGMEMTTKLGAATESGGAAGFATGTVSGAASGFGAATGVGICSSGQSGTMRTRHSTGGTNKDYADGAISMNFLDSYFSQKAFACAEEDDGQEANDCLLIYDNEGADATGSPVGSVGCCSFIADDLDDSFLDSLGPKFKKLAEISLGVDGEGKEVQPPSKDSGYGIESCGHPIEVQQTGFVKCQTLSGSQGASALSTSGSVQPAVSIPDPLQHGNYLVTETYSASGSLVQPSTAGFDPLLTQNVIVTERVICPISSVPGNLAGPTQLRGSHTMLCTEDPCSRLI
suppression of immune response by oral tolerance: failed to obtain successful results
